# Measurements: paper PMC9482650, “Quantitative fragmentomics allow affinity mapping of interactomes” (Nature Communications, 2022)
# T1: LIN7B, Q9HAP6
# T1 sequence (Q9HAP6 88-185, limits assumed, looked up): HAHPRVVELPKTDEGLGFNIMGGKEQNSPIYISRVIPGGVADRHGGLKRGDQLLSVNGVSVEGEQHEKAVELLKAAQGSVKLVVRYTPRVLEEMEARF
# T2: HTRA3, P83110
# T2 sequence (P83110 354-453, limits assumed, looked up): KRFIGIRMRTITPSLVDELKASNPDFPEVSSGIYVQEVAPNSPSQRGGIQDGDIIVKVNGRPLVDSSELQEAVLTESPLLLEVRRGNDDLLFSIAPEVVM
# T3: GRIP1_7, Q9Y3R0
# T3 sequence (Q9Y3R0 999-1096, limits assumed, looked up): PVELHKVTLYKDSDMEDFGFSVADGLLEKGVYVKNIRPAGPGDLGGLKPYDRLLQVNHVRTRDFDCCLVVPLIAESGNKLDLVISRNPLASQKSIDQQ
# T4: RADIL, Q96JH8
# T4 sequence (Q96JH8 971-1071, limits assumed, looked up): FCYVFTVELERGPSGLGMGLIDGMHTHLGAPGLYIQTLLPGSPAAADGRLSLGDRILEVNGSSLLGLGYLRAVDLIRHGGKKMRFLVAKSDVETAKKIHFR
# T5: TJP3_3, O95049
# T5 sequence (O95049 375-456, limits assumed, looked up): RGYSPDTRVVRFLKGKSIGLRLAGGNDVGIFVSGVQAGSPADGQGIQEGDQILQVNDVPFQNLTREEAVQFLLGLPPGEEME
# T6: SIPA1L2, Q9P2F8
# T6 sequence (Q9P2F8 945-1036, limits assumed, looked up): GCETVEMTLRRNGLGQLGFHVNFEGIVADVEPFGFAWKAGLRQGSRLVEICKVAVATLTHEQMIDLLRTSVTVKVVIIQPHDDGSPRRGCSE
# T7: TX1BP3, O14907
# T7 sequence (O14907 10-122, limits assumed, looked up): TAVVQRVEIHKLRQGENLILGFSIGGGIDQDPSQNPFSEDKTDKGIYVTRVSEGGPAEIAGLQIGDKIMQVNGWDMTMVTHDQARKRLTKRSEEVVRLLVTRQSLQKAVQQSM
# T8: SNTB1, Q13884
# T8 sequence (Q13884 107-205, limits assumed, looked up): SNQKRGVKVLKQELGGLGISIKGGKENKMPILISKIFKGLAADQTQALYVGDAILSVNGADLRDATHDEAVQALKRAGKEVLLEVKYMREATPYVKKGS
# T9: HTRA4, P83105
# T9 sequence (P83105 378-476, limits assumed, looked up): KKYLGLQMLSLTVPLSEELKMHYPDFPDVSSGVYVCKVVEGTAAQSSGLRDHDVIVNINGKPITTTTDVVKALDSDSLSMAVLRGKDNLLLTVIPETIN
# T10: NHERF3_4, Q5T2W1
# T10 sequence (Q5T2W1 373-468, limits assumed, looked up): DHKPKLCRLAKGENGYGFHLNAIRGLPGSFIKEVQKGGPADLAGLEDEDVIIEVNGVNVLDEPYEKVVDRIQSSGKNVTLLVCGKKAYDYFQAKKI
# T11: ARHGEF11, O15085
# T11 sequence (O15085 42-136, limits assumed, looked up): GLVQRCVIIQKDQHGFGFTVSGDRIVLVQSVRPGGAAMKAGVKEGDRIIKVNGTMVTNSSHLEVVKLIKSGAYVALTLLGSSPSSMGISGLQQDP
# T12: RAPGEF6, Q8TEU7
# T12 sequence (Q8TEU7 525-625, limits assumed, looked up): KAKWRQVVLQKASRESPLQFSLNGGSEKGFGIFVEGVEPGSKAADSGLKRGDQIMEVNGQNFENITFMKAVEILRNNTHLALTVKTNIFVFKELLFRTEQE
# T13: SNTA1, Q13424
# T13 sequence (Q13424 82-180, limits assumed, looked up): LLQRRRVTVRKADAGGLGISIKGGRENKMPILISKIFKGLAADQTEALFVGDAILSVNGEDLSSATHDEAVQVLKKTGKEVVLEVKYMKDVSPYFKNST
# Biological target: T1, LIN7B, Q9HAP6
# Assay: holdup assay
# Parameters: key: below the threshold = too weak to quantify, mostly under pKd 3.1 to 4
# Conditions: plain residues with an end cap or a label only (N-terminal biotin on a linker: ttds)
row,Binder,pKd
1,"QSARYRDTEL [TJP2, Q9UDY2]",below the threshold

# Biological target: DLG2_2, Q15700
# Assay: holdup assay
# Parameters: key: below the threshold = too weak to quantify, mostly under pKd 3.1 to 4
# Conditions: plain residues with an end cap or a label only (N-terminal biotin on a linker: ttds)
# Chain of DLG2_2, Q15700 (Q15700 189-283): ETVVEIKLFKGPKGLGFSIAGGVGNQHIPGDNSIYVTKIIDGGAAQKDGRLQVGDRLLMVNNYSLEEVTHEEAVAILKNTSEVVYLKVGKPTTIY
row,Binder,pKd
1,"QSARYRDTEL [TJP2, Q9UDY2]",3.61

# Biological target: AHNAK1, Q09666
# Assay: holdup assay
# Parameters: key: below the threshold = too weak to quantify, mostly under pKd 3.1 to 4
# Conditions: plain residues with an end cap or a label only (N-terminal biotin on a linker: ttds)
# Chain of AHNAK1, Q09666 (Q09666 4-100): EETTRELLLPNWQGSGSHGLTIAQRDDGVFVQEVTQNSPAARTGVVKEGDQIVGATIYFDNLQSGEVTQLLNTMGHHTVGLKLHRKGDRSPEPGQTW
row,Binder,pKd
1,"QSARYRDTEL [TJP2, Q9UDY2]",3.75

# Biological target: T2, HTRA3, P83110
# Assay: holdup assay
# Parameters: key: below the threshold = too weak to quantify, mostly under pKd 3.1 to 4
# Conditions: plain residues with an end cap or a label only (N-terminal biotin on a linker: ttds)
row,Binder,pKd
1,"QSARYRDTEL [TJP2, Q9UDY2]",3.54

# Biological target: T3, GRIP1_7, Q9Y3R0
# Assay: holdup assay
# Parameters: key: below the threshold = too weak to quantify, mostly under pKd 3.1 to 4
# Conditions: plain residues with an end cap or a label only (N-terminal biotin on a linker: ttds)
row,Binder,pKd
1,"QSARYRDTEL [TJP2, Q9UDY2]",3.82

# Biological target: T4, RADIL, Q96JH8
# Assay: holdup assay
# Parameters: key: below the threshold = too weak to quantify, mostly under pKd 3.1 to 4
# Conditions: plain residues with an end cap or a label only (N-terminal biotin on a linker: ttds)
row,Binder,pKd
1,"QSARYRDTEL [TJP2, Q9UDY2]",below the threshold

# Biological target: T5, TJP3_3, O95049
# Assay: holdup assay
# Parameters: key: below the threshold = too weak to quantify, mostly under pKd 3.1 to 4
# Conditions: plain residues with an end cap or a label only (N-terminal biotin on a linker: ttds)
row,Binder,pKd
1,"QSARYRDTEL [TJP2, Q9UDY2]",3.55

# Biological target: LDB3, O75112
# Assay: holdup assay
# Parameters: key: below the threshold = too weak to quantify, mostly under pKd 3.1 to 4
# Conditions: plain residues with an end cap or a label only (N-terminal biotin on a linker: ttds)
# Chain of LDB3, O75112 (O75112 1-94): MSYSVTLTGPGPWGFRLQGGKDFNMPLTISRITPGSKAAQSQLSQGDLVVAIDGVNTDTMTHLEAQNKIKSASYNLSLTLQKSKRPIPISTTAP
row,Binder,pKd
1,"QSARYRDTEL [TJP2, Q9UDY2]",below the threshold

# Biological target: MAGI2_4, Q86UL8
# Assay: holdup assay
# Parameters: key: below the threshold = too weak to quantify, mostly under pKd 3.1 to 4
# Conditions: plain residues with an end cap or a label only (N-terminal biotin on a linker: ttds)
# Chain of MAGI2_4, Q86UL8 (Q86UL8 772-865): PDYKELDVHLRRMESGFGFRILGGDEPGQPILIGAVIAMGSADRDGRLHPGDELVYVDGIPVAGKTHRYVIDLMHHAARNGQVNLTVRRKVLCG
row,Binder,pKd
1,"QSARYRDTEL [TJP2, Q9UDY2]",3.74

# Biological target: NHERF4_2, Q86UT5
# Assay: holdup assay
# Parameters: key: below the threshold = too weak to quantify, mostly under pKd 3.1 to 4
# Conditions: plain residues with an end cap or a label only (N-terminal biotin on a linker: ttds)
# Chain of NHERF4_2, Q86UT5 (Q86UT5 220-308): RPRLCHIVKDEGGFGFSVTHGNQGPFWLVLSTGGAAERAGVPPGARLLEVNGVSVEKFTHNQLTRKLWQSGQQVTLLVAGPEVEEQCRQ
row,Binder,pKd
1,"QSARYRDTEL [TJP2, Q9UDY2]",below the threshold

# Biological target: MAGI1_2, Q96QZ7
# Assay: holdup assay
# Parameters: key: below the threshold = too weak to quantify, mostly under pKd 3.1 to 4
# Conditions: plain residues with an end cap or a label only (N-terminal biotin on a linker: ttds)
# Chain of MAGI1_2, Q96QZ7 (Q96QZ7 456-580): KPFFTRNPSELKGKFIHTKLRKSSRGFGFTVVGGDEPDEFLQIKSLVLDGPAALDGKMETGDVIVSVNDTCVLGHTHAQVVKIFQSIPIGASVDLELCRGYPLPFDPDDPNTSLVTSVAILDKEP
row,Binder,pKd
1,"QSARYRDTEL [TJP2, Q9UDY2]",below the threshold

# Biological target: T6, SIPA1L2, Q9P2F8
# Assay: holdup assay
# Parameters: key: below the threshold = too weak to quantify, mostly under pKd 3.1 to 4
# Conditions: plain residues with an end cap or a label only (N-terminal biotin on a linker: ttds)
row,Binder,pKd
1,"QSARYRDTEL [TJP2, Q9UDY2]",below the threshold

# Biological target: T7, TX1BP3, O14907
# Assay: holdup assay
# Parameters: key: below the threshold = too weak to quantify, mostly under pKd 3.1 to 4
# Conditions: plain residues with an end cap or a label only (N-terminal biotin on a linker: ttds)
row,Binder,pKd
1,"QSARYRDTEL [TJP2, Q9UDY2]",4.76

# Biological target: T8, SNTB1, Q13884
# Assay: holdup assay
# Parameters: key: below the threshold = too weak to quantify, mostly under pKd 3.1 to 4
# Conditions: plain residues with an end cap or a label only (N-terminal biotin on a linker: ttds)
row,Binder,pKd
1,"QSARYRDTEL [TJP2, Q9UDY2]",3.86

# Biological target: DLG5_1, Q8TDM6
# Assay: holdup assay
# Parameters: key: below the threshold = too weak to quantify, mostly under pKd 3.1 to 4
# Conditions: plain residues with an end cap or a label only (N-terminal biotin on a linker: ttds)
# Chain of DLG5_1, Q8TDM6 (Q8TDM6 617-713): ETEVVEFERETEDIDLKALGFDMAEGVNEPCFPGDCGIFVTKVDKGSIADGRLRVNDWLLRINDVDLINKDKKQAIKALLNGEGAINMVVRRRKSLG
row,Binder,pKd
1,"QSARYRDTEL [TJP2, Q9UDY2]",below the threshold

# Biological target: Inadl_6, Q8NI35
# Assay: holdup assay
# Parameters: key: below the threshold = too weak to quantify, mostly under pKd 3.1 to 4
# Conditions: plain residues with an end cap or a label only (N-terminal biotin on a linker: ttds)
# Chain of Inadl_6, Q8NI35 (Q8NI35 1058-1167): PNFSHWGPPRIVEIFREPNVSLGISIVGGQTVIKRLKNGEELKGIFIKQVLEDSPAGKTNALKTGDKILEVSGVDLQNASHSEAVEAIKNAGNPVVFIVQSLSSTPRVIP
row,Binder,pKd
1,"QSARYRDTEL [TJP2, Q9UDY2]",below the threshold

# Biological target: T9, HTRA4, P83105
# Assay: holdup assay
# Parameters: key: below the threshold = too weak to quantify, mostly under pKd 3.1 to 4
# Conditions: plain residues with an end cap or a label only (N-terminal biotin on a linker: ttds)
row,Binder,pKd
1,"QSARYRDTEL [TJP2, Q9UDY2]",below the threshold

# Biological target: GRID2IP_2, A4D2P6
# Assay: holdup assay
# Parameters: key: below the threshold = too weak to quantify, mostly under pKd 3.1 to 4
# Conditions: plain residues with an end cap or a label only (N-terminal biotin on a linker: ttds)
# Chain of GRID2IP_2, A4D2P6 (A4D2P6 272-370): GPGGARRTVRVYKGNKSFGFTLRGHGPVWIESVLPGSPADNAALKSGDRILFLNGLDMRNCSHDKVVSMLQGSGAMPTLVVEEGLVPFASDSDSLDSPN
row,Binder,pKd
1,"QSARYRDTEL [TJP2, Q9UDY2]",below the threshold

# Biological target: TJP1_3, Q07157
# Assay: holdup assay
# Parameters: key: below the threshold = too weak to quantify, mostly under pKd 3.1 to 4
# Conditions: plain residues with an end cap or a label only (N-terminal biotin on a linker: ttds)
# Chain of TJP1_3, Q07157 (Q07157 416-512): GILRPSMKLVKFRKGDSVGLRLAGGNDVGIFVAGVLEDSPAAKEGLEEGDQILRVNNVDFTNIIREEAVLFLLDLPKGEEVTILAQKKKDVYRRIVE
row,Binder,pKd
1,"QSARYRDTEL [TJP2, Q9UDY2]",below the threshold

# Biological target: T10, NHERF3_4, Q5T2W1
# Assay: holdup assay
# Parameters: key: below the threshold = too weak to quantify, mostly under pKd 3.1 to 4
# Conditions: plain residues with an end cap or a label only (N-terminal biotin on a linker: ttds)
row,Binder,pKd
1,"QSARYRDTEL [TJP2, Q9UDY2]",3.81

# Biological target: T11, ARHGEF11, O15085
# Assay: holdup assay
# Parameters: key: below the threshold = too weak to quantify, mostly under pKd 3.1 to 4
# Conditions: plain residues with an end cap or a label only (N-terminal biotin on a linker: ttds)
row,Binder,pKd
1,"QSARYRDTEL [TJP2, Q9UDY2]",3.87

# Biological target: T12, RAPGEF6, Q8TEU7
# Assay: holdup assay
# Parameters: key: below the threshold = too weak to quantify, mostly under pKd 3.1 to 4
# Conditions: plain residues with an end cap or a label only (N-terminal biotin on a linker: ttds)
row,Binder,pKd
1,"QSARYRDTEL [TJP2, Q9UDY2]",3.55

# Biological target: T13, SNTA1, Q13424
# Assay: holdup assay
# Parameters: key: below the threshold = too weak to quantify, mostly under pKd 3.1 to 4
# Conditions: plain residues with an end cap or a label only (N-terminal biotin on a linker: ttds)
row,Binder,pKd
1,"QSARYRDTEL [TJP2, Q9UDY2]",4.38

# Biological target: DLG1_1, Q12959
# Assay: holdup assay
# Parameters: key: below the threshold = too weak to quantify, mostly under pKd 3.1 to 4
# Conditions: plain residues with an end cap or a label only (N-terminal biotin on a linker: ttds)
row,Binder,pKd
1,"QSARYRDTEL [TJP2, Q9UDY2]",3.68

# Biological target: DLG4_3, P78352
# Assay: holdup assay
# Parameters: key: below the threshold = too weak to quantify, mostly under pKd 3.1 to 4
# Conditions: plain residues with an end cap or a label only (N-terminal biotin on a linker: ttds)
# Chain of DLG4_3, P78352 (P78352 306-403): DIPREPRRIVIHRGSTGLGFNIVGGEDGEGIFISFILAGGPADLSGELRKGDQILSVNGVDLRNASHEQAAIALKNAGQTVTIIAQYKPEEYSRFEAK
row,Binder,pKd
1,"QSARYRDTEL [TJP2, Q9UDY2]",below the threshold
